The record followed here is the supplement of paper PMC5998384.

Data set [1] has as its system HeLa Kyoto. The experiment in a line: solubility in G1/S (NP-40 vs SDS abundance) (log2 ratio); higher = more soluble. Particulars: cell cycle stage: G1/S.
In data set [2] the test system is HeLa Kyoto. The experiment in a line: solubility change mitosis vs G1/S (difference of NP-40 vs SDS log2 ratios) (log2 ratio difference); higher = more soluble in mitosis.
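For solubility change mitosis vs G1/S (difference of NP-40 vs SDS log2 ratios) in this document: synchronized HeLa Kyoto cells (double thymidine block for G1/S, nocodazole release for mitosis), protein amounts in NP-40 versus SDS lysates quantified by mass spectrometry, three biological replicates.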
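For solubility in G1/S (NP-40 vs SDS abundance) in this document: HeLa Kyoto cells arrested at G1/S by double thymidine block, proteins quantified by TMT10plex mass spectrometry in mild NP-40 versus SDS extracts, three biological replicates.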

Chain of ARNTL (chain, as listed by the source): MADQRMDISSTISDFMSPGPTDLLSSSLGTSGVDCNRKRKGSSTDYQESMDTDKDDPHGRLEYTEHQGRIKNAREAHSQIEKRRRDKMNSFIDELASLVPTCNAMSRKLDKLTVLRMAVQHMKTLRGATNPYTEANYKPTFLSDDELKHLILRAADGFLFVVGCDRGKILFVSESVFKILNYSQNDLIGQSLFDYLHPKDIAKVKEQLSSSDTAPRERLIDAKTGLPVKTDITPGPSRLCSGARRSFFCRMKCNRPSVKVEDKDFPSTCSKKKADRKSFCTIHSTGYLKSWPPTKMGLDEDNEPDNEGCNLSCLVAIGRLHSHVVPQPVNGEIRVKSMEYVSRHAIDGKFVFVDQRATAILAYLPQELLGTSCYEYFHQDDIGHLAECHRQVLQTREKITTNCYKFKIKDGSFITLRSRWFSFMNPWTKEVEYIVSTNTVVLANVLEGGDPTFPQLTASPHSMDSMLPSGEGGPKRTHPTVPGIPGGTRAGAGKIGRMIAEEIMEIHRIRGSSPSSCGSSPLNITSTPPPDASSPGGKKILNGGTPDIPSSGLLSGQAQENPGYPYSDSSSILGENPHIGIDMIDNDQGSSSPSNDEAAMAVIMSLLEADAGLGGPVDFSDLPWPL

“MALKGRALYDFHSENKEEISIQQDEDLVIFSETSLDGWLQGQNSRGETGLFPASYVEIVRSGISTNHADYSSSPAGSPGAQVSLYNSPSVASPARSGGGSGFLSNQGSFEEDDDDDWDDWDDGCTVVEEPRAGGLGTNGHPPLNLSYPGAYPSQHMAFRPKPPLERQDSLASAKRGSVVGRNLNRFSCFVRSGVEAFILGDVPMMAKIAETYSIEMGPRGPQWKANPHPFACSVEDPTKQTKFKGIKSYISYKLTPTHAASPVYRRYKHFDWLYNRLLHKFTVISVPHLPEKQATGRFEEDFIEKRKRRLILWMDHMTSHPVLSQYEGFQHFLSCLDDKQWKMGKRRAEKDEMVGASFLLTFQIPTEHQDLQDVEDRVDTFKAFSKKMDDSVLQLSTVASELVRKHVGGFRKEFQKLGSAFQAISHSFQMDPPFCSEALNSAISHTGRTYEAIGEMFAEQPKNDLFQMLDTLSLYQGLLSNFPDIIHLQKGAFAKVKESQRMSDEGRMVQDEADGIRRRCRVVGFALQAEMNHFHQRRELDFKHMMQNYLRQQILFYQRVGQQLEKTLRMYDNL [SNX33]”: the “solubility in G1/S (log2)” value in the data set with HeLa Kyoto [1] was -0.337. Also, in the data set with HeLa Kyoto [2], the “solubility change mitosis (log2)” value is -0.033.

Consider ARNTL, for which the “solubility in G1/S (log2)” value in the data set on HeLa Kyoto [1] was -0.0786. Also, the “solubility change mitosis (log2)” value in the data set with HeLa Kyoto [2] was -0.179.

As for RAI1, in the data set with HeLa Kyoto [1], the “solubility in G1/S (log2)” value is -0.769. Besides, in the data set on HeLa Kyoto [2], the “solubility change mitosis (log2)” value worked out at 0.596.

As for “MGMKVPGKGESGPSALLTPPMSSSSRGPGAGARRRRTRCRRCRACVRTECGDCHFCRDMKKFGGPGRMKQSCLLRQCTAPVLPHTAVCLLCGEAGKEDTVEGEEEKFGLSLMECTICNEIVHPGCLKMGKAEGVINAEIPNCWECPRCTQEGRTSKDSGEGPGRRRADNGEEGASLGSGWKLTEEPPLPPPPPRRKGPLPAGPPPEDVPGPPKRKEREAGNEPPTPRKKVKGGRERHLKKVGGDACLLRGSDPGGPGLLPPRVLNPSQAFSSCHPGLPPENWEKPKPPLASAEGPAVPSPSPQREKLERFKRMCQLLERVPDTSSSSSDSDSDSDSSGTSLSEDEAPGEARNGRRPARGSSGEKENRGGRRAVRPGSGGPLLSWPLGPAPPPRPPQLERHVVRPPPRSPEPDTLPLAAGSDHPLPRAAWLRVFQHLGPRELCICMRVCRTWSRWCYDKRLWPRMDLSRRKSLTPPMLSGVVRRQPRALDLSWTGVSKKQLMWLLNRLQGLQELVLSGCSWLSVSALGSAPLPALRLLDLRWIEDVKDSQLRELLLPPPDTKPGQTESRGRLQGVAELRLAGLELTDASLRLLLRHAPQLSALDLSHCAHVGDPSVHLLTAPTSPLRETLVHLNLAGCHRLTDHCLPLFRRCPRLRRLDLRSCRQLSPEACARLAAAGPPGPFRCPEEKLLLKDS [FBXL19]”, the “solubility in G1/S (log2)” value in the data set with HeLa Kyoto [1] is -0.317. In the data set on HeLa Kyoto [2], the “solubility change mitosis (log2)” value is -0.126.

Turning to “MEPQVTLNVTFKNEIQSFLVSDPENTTWADIEAMVKVSFDLNTIQIKYLDEENEEVSINSQGEYEEALKMAVKQGNQLQMQVHEGHHVVDEAPPPVVGAKRLAARAGKKPLAHYSSLVRVLGSDMKTPEDPAVQSFPLVPCDTDQPQDKPPDWFTSYLETFREQVVNETVEKLEQKLHEKLVLQNPSLGSCPSEVSMPTSEETLFLPENQFSWHIACNNCQRRIVGVRYQCSLCPSYNICEDCEAGPYGHDTNHVLLKLRRPVVGSSEPFCHSKYSTPRLPAALEQVRLQKQVDKNFLKAEKQRLRAEKKQRKAEVKELKKQLKLHRKIHLWNSIHGLQSPKSPLGRPESLLQSNTLMLPLQPCTSVMPMLSAAFVDENLPDGTHLQPGTKFIKHWRMKNTGNVKWSADTKLKFMWGNLTLASTEKKDVLVPCLKAGHVGVVSVEFIAPALEGTYTSHWRLSHKGQQFGPRVWCSIIVDPFPSEESPDNIEKGMISSSKTDDLTCQQEETFLLAKEERQLGEVTEQTEGTAACIPQKAKNVASERELYIPSVDLLTAQDLLSFELLDINIVQELERVPHNTPVDVTPCMSPLPHDSPLIEKPGLGQIEEENEGAGFKALPDSMVSVKRKAENIASVEEAEEDLSGTQFVCETVIRSLTLDAAPDHNPPCRQKSLQMTFALPEGPLGNEKEEIIHIAEEEAVMEEEEDEEDEEEEDELKDEVQSQSSASSEDYIIILPECFDTSRPLGDSMYSSALSQPGLERGAEGKPGVEAGQEPAEAGERLPGGENQPQEHSISDILTTSQTLETVPLIPEVVELPPSLPRSSPCVHHHGSPGVDLPVTIPEVSSVPDQIRGEPRGSSGLVNSRQKSYDHSRHHHGSSIAGGLVKGALSVAASAYKALFAGPPVTAQPIISEDQTAALMAHLFEMGFCDRQLNLRLLKKHNYNILQVVTELLQLNNNDWYSQRY [NBR1]”, in the data set on HeLa Kyoto [1], the “solubility in G1/S (log2)” value is -0.371. In the data set with HeLa Kyoto [2], the “solubility change mitosis (log2)” value is 0.193.

For the substance “MAGWWPALSRAARRHPWPTNVLLYGSLVSAGDALQQRLQGREANWRQTRRVATLVVTFHANFNYVWLRLLERALPGRAPHALLAKLLCDQVVGAPIAVSAFYVGMSILQGKDDIFLDLKQKFWNTYLSGLMYWPFVQLTNFSLVPVQWRTAYAGVCGFLWATFICFSQQSGDGTFKSAFTILYTKGTSATEGYPKK [MPV17L]”, the “solubility in G1/S (log2)” value in the data set with HeLa Kyoto [1] was -0.145. Moreover, the “solubility change mitosis (log2)” value with HeLa Kyoto [2] was -0.192.

Consider “MPGVARLPLLLGLLLLPRPGRPLDLADYTYDLAEEDDSEPLNYKDPCKAAAFLGDIALDEEDLRAFQVQQAVDLRRHTARKSSIKAAVPGNTSTPSCQSTNGQPQRGACGRWRGRSRSRRAATSRPERVWPDGVIPFVIGGNFTGSQRAVFRQAMRHWEKHTCVTFLERTDEDSYIVFTYRPCGCCSYVGRRGGGPQAISIGKNCDKFGIVVHELGHVVGFWHEHTRPDRDRHVSIVRENIQPGQEYNFLKMEPQEVESLGETYDFDSIMHYARNTFSRGIFLDTIVPKYEVNGVKPPIGQRTRLSKGDIAQARKLYKCPACGETLQDSTGNFSSPEYPNGYSAHMHCVWRISVTPGEKIILNFTSLDLYRSRLCWYDYVEVRDGFWRKAPLRGRFCGSKLPEPIVSTDSRLWVEFRSSSNWVGKGFFAVYEAICGGDVKKDYGHIQSPNYPDDYRPSKVCIWRIQVSEGFHVGLTFQSFEIERHDSCAYDYLEVRDGHSESSTLIGRYCGYEKPDDIKSTSSRLWLKFVSDGSINKAGFAVNFFKEVDECSRPNRGGCEQRCLNTLGSYKCSCDPGYELAPDKRRCEAACGGFLTKLNGSITSPGWPKEYPPNKNCIWQLVAPTQYRISLQFDFFETEGNDVCKYDFVEVRSGLTADSKLHGKFCGSEKPEVITSQYNNMRVEFKSDNTVSKKGFKAHFFSDKDECSKDNGGCQQDCVNTFGSYECQCRSGFVLHDNKHDCKEAGCDHKVTSTSGTITSPNWPDKYPSKKECTWAISSTPGHRVKLTFMEMDIESQPECAYDHLEVFDGRDAKAPVLGRFCGSKKPEPVLATGSRMFLRFYSDNSVQRKGFQASHATECGGQVRADVKTKDLYSHAQFGDNNYPGGVDCEWVIVAEEGYGVELVFQTFEVEEETDCGYDYMELFDGYDSTAPRLGRYCGSGPPEEVYSAGDSVLVKFHSDDTITKKGFHLRYTSTKFQDTLHSRK [BMP1]”, for which the “solubility in G1/S (log2)” value in the data set with HeLa Kyoto [1] was -0.299. In addition, the “solubility change mitosis (log2)” value in the data set with HeLa Kyoto [2] is -0.301.

Regarding “MASDGARKQFWKRSNSKLPGSIQHVYGAQHPPFDPLLHGTLLRSTAKMPTTPVKAKRVSTFQEFESNTSDAWDAGEDDDELLAMAAESLNSEVVMETANRVLRNHSQRQGRPTLQEGPGLQQKPRPEAEPPSPPSGDLRLVKSVSESHTSCPAESASDAAPLQRSQSLPHSATVTLGGTSDPSTLSSSALSEREASRLDKFKQLLAGPNTDLEELRRLSWSGIPKPVRPMTWKLLSGYLPANVDRRPATLQRKQKEYFAFIEHYYDSRNDEVHQDTYRQIHIDIPRMSPEALILQPKVTEIFERILFIWAIRHPASGYVQGINDLVTPFFVVFICEYIEAEEVDTVDVSGVPAEVLCNIEADTYWCMSKLLDGIQDNYTFAQPGIQMKVKMLEELVSRIDEQVHRHLDQHEVRYLQFAFRWMNNLLMREVPLRCTIRLWDTYQSEPDGFSHFHLYVCAAFLVRWRKEILEEKDFQELLLFLQNLPTAHWDDEDISLLLAEAYRLKFAFADAPNHYKK [TBC1D22A]”, in the data set with HeLa Kyoto [1], the “solubility in G1/S (log2)” value is 0.31. For the same substance, in the data set on HeLa Kyoto [2], the “solubility change mitosis (log2)” value is -0.253.

Turning to “MPPQLQETRMNRSIPVEVDESEPYPSQLLKPIPEYSPEEESEPPAPNIRNMAPNSLSAPTMLHNSSGDFSQAHSTLKLANHQRPVSRQVTCLRTQVLEDSEDSFCRRHPGLGKAFPSGCSAVSEPASESVVGALPAEHQFSFMEKRNQWLVSQLSAASPDTGHDSDKSDQSLPNASADSLGGSQEMVQRPQPHRNRAGLDLPTIDTGYDSQPQDVLGIRQLERPLPLTSVCYPQDLPRPLRSREFPQFEPQRYPACAQMLPPNLSPHAPWNYHYHCPGSPDHQVPYGHDYPRAAYQQVIQPALPGQPLPGASVRGLHPVQKVILNYPSPWDHEERPAQRDCSFPGLPRHQDQPHHQPPNRAGAPGESLECPAELRPQVPQPPSPAAVPRPPSNPPARGTLKTSNLPEELRKVFITYSMDTAMEVVKFVNFLLVNGFQTAIDIFEDRIRGIDIIKWMERYLRDKTVMIIVAISPKYKQDVEGAESQLDEDEHGLHTKYIHRMMQIEFIKQGSMNFRFIPVLFPNAKKEHVPTWLQNTHVYSWPKNKKNILLRLLREEEYVAPPRGPLPTLQVVPL [TRAF3IP2]”, the “solubility in G1/S (log2)” value in the data set on HeLa Kyoto [1] is -0.199. For the same substance, the “solubility change mitosis (log2)” value in the data set on HeLa Kyoto [2] came out at 0.168.

As for ICE1, the “solubility in G1/S (log2)” value with HeLa Kyoto [1] is -0.864. In addition, the “solubility change mitosis (log2)” value in the data set on HeLa Kyoto [2] was 0.51.

As to “MSENNKNSLESSLRQLKCHFTWNLMEGENSLDDFEDKVFYRTEFQNREFKATMCNLLAYLKHLKGQNEAALECLRKAEELIQQEHADQAEIRSLVTWGNYAWVYYHMGRLSDVQIYVDKVKHVCEKFSSPYRIESPELDCEEGWTRLKCGGNQNERAKVCFEKALEKKPKNPEFTSGLAIASYRLDNWPPSQNAIDPLRQAIRLNPDNQYLKVLLALKLHKMREEGEEEGEGEKLVEEALEKAPGVTDVLRSAAKFYRRKDEPDKAIELLKKALEYIPNNAYLHCQIGCCYRAKVFQVMNLRENGMYGKRKLLELIGHAVAHLKKADEANDNLFRVCSILASLHALADQYEDAEYYFQKEFSKELTPVAKQLLHLRYGNFQLYQMKCEDKAIHHFIEGVKINQKSREKEKMKDKLQKIAKMRLSKNGADSEALHVLAFLQELNEKMQQADEDSERGLESGSLIPSASSWNGE [IFIT2]”, the “solubility in G1/S (log2)” value in the data set with HeLa Kyoto [1] was 0.432. For the same substance, the “solubility change mitosis (log2)” value in the data set with HeLa Kyoto [2] is -0.2.
